Source: paper doi:10.1101/2025.01.27.635082 (bioRxiv, 2025)

Target: the molecule itself
Assay: SEC

B1: human phosphomannomutase 2 (hPMM2) (enzyme)
chain: MAAPGPALCLFDVDGTLTAPRQKITKEMDDFLQKLRQKIKIGVVGGSDFEKVQEQLGNDVVEKYDYVFPENGLVAYKDGKLLCRQNIQSHLGEALIQDLINYCLSYIAKIKLPKKRGTFIEFRNGMLNVSPIGRSCSQEERIEFYELDKKENIRQKFVADLRKEFAGKGLTFSIGGQISFDVFPDGWDKRYCLRHVENDGYKTIYFFGDKTMPGGNDHEIFTDPRTMGYSVTAPEDTRRICELLFS
stoichiometry N: 2

B2: mouse phosphomannomutase 2 (Pmm2) (enzyme, UniProt Q9Z2M7 1-242, looked up)
chain: MATLCLFDMDGTLTAPRQKITEEMDGFLQKLRQKTKIGVVGGSDFEKLQEQLGNDVVEKYDYVFPENGLVAYKDGKLLCKQNIQGHLGEDVIQDLINYCLSYIANIKLPKKRGTFIEFRNGMLNVSPIGRSCSQEERIEFYELDKKEHIRQKFVADLRKEFAGKGLTFSIGGQISIDVFPEGWDKRYCLRHLEHAGYKTIYFFGDKTMPGGNDHEIFTDPRTVGYTVTAPEDTRRICEGLFP
stoichiometry N: 2
